Measurements from patent US20060099643A1, “Method for determining the regulation of xenobiotic removal” (priority 2002, published 2006).

Assays:
ER-α [1] = target: T1, ER-α (UniProt P03372 297-554, limits assumed); experiment: Thermofluor thermal shift; ER-α 8 µM with tamoxifen 20 µM; peptide 100 µM
T1 construct: also called estrogen receptor alpha
T1 sequence (looked up): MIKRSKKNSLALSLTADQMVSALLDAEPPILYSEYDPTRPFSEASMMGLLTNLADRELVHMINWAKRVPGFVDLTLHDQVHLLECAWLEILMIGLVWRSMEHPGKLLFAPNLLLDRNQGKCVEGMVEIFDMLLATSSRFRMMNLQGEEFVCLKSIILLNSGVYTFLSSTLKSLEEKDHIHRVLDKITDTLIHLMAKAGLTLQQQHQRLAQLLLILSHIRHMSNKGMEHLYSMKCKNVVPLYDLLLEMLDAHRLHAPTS

ER-α [2] = target: T1, ER-α; experiment: Thermofluor thermal shift; ER-α 8 µM with 2-methoxy-E2 20 µM; peptide 100 µM
ER-β [3] = target: T2, ER-β (UniProt Q92731 256-505, limits assumed); experiment: Thermofluor thermal shift; ER-β 8 µM, no ligand; peptide 100 µM
T2 construct: also called estrogen receptor beta

ER-α [4] = target: T1, ER-α; experiment: Thermofluor thermal shift; ER-α 8 µM with 4-OH-tamoxifen 20 µM; peptide 100 µM
SXR [5] = target: T3, SXR (UniProt O75469 130-434, limits assumed); experiment: Thermofluor thermal shift; SXR 6 µM with androsterone 50 µM; peptide 100 µM
T3 construct: also called steroid and xenobiotic receptor; steroid X receptor
T3 sequence (looked up): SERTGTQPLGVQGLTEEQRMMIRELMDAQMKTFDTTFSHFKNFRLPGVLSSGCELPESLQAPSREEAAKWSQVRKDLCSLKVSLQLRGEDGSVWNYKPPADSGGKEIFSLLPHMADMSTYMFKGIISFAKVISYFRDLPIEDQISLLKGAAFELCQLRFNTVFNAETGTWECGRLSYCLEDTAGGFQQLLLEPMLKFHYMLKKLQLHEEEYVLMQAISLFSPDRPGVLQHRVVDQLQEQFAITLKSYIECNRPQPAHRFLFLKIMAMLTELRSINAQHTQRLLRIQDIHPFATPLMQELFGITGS

SXR [6] = target: T3, SXR; experiment: Thermofluor thermal shift; SXR 6 µM with hydrocortisone 50 µM; peptide 100 µM
ER-α [7] = target: T1, ER-α; experiment: Thermofluor thermal shift; ER-α 8 µM with 17-α-ethylene-E2 20 µM; peptide 100 µM
SXR [8] = target: T3, SXR; experiment: Thermofluor thermal shift; SXR 6 µM with 11-α-hydroxy-progesterone 50 µM; peptide 100 µM
ER-α [9] = target: T1, ER-α; experiment: Thermofluor thermal shift; ER-α 8 µM with estradiol 20 µM; peptide 100 µM
SXR [10] = target: T3, SXR; experiment: Thermofluor thermal shift; SXR 6 µM with corticosterone 50 µM; peptide 100 µM
ER-β [11] = target: T2, ER-β; experiment: Thermofluor thermal shift; ER-β 8 µM with estradiol 20 µM; peptide 100 µM
SXR [12] = target: T3, SXR; experiment: Thermofluor thermal shift; SXR 6 µM with 4-androstene 50 µM; peptide 100 µM
SXR [13] = target: T3, SXR; experiment: Thermofluor thermal shift; SXR 6 µM with cortisone 50 µM; peptide 100 µM
SXR [14] = target: T3, SXR; experiment: Thermofluor thermal shift; SXR 6 µM with taxol 50 µM; peptide 100 µM
ER-α [15] = target: T1, ER-α; experiment: Thermofluor thermal shift; ER-α 8 µM with estrone 20 µM; peptide 100 µM
ER-α [16] = target: T1, ER-α; experiment: Thermofluor thermal shift; ER-α 8 µM with ICI-182780 20 µM; peptide 100 µM
SXR [17] = target: T3, SXR; experiment: Thermofluor thermal shift; SXR 6 µM with lithocholic acid 50 µM; peptide 100 µM
SXR [18] = target: T3, SXR; experiment: Thermofluor thermal shift; SXR 6 µM with 17-α-hydroxyprogesterone 50 µM; peptide 100 µM
ER-α [19] = target: T1, ER-α; experiment: Thermofluor thermal shift; ER-α 8 µM, no ligand; peptide 100 µM
ER-β [20] = target: T2, ER-β; experiment: Thermofluor thermal shift; ER-β 8 µM with 17-α-ethylene-E2 20 µM; peptide 100 µM
SXR [21] = target: T3, SXR; experiment: Thermofluor thermal shift; SXR 6 µM with lovastatin 50 µM; peptide 100 µM
ER-β [22] = target: T2, ER-β; experiment: Thermofluor thermal shift; ER-β 8 µM with estrone 20 µM; peptide 100 µM
ER-β [23] = target: T2, ER-β; experiment: Thermofluor thermal shift; ER-β 8 µM with ICI-182780 20 µM; peptide 100 µM
SXR [24] = target: T3, SXR; experiment: Thermofluor thermal shift; SXR 6 µM with clofibrate 50 µM; peptide 100 µM
SXR [25] = target: T3, SXR; experiment: Thermofluor thermal shift; SXR 6 µM with estradiol 50 µM; peptide 100 µM
ER-β [26] = target: T2, ER-β; experiment: Thermofluor thermal shift; ER-β 8 µM with tamoxifen 20 µM; peptide 100 µM
ER-β [27] = target: T2, ER-β; experiment: Thermofluor thermal shift; ER-β 8 µM with 4-OH-tamoxifen 20 µM; peptide 100 µM
SXR [28] = target: T3, SXR; experiment: Thermofluor thermal shift; SXR 6 µM, ligand free; peptide 100 µM
ER-β [29] = target: T2, ER-β; experiment: Thermofluor thermal shift; ER-β 8 µM with 2-methoxy-E2 20 µM; peptide 100 µM

T2 sequence (Q92731 256-505 limits assumed): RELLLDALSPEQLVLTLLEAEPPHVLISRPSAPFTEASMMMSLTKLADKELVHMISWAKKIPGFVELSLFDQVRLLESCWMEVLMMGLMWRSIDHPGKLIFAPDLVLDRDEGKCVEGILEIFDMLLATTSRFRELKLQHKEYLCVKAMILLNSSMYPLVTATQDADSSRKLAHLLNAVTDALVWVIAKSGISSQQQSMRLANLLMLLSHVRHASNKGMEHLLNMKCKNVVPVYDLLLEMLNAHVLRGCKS

Molecule	change in Tm stabilization from the receptor-ligand ΔTm (ER-α [1])	change in Tm stabilization from the receptor-ligand ΔTm (ER-α [2])	change in Tm stabilization from the receptor-ligand ΔTm (ER-β [3])	change in Tm stabilization from the receptor-ligand ΔTm (ER-α [4])	ΔΔTm (SXR [5])	ΔΔTm (SXR [6])	change in Tm stabilization from the receptor-ligand ΔTm (ER-α [7])	ΔΔTm (SXR [8])	change in Tm stabilization from the receptor-ligand ΔTm (ER-α [9])	ΔΔTm (SXR [10])	change in Tm stabilization from the receptor-ligand ΔTm (ER-β [11])	ΔΔTm (SXR [12])	ΔΔTm (SXR [13])	ΔΔTm (SXR [14])	change in Tm stabilization from the receptor-ligand ΔTm (ER-α [15])	change in Tm stabilization from the receptor-ligand ΔTm (ER-α [16])	ΔΔTm (SXR [17])	ΔΔTm (SXR [18])	change in Tm stabilization from the receptor-ligand ΔTm (ER-α [19])	change in Tm stabilization from the receptor-ligand ΔTm (ER-β [20])	further results
co-repressor peptide NCoR-1 (from UniProt O75376 2044-2066)	0.1 °C	-0.7 °C	-0.4 °C	0.1 °C	3.8 °C	3.7 °C	-0.1 °C	1 °C	0 °C	0.5 °C	0 °C	3.6 °C	3.6 °C	4.7 °C	-0.3	-0.6	1.4 °C	3.5 °C	0 °C	-0.7	ΔΔTm (SXR [21]): 1.2 °C; change in Tm stabilization from the receptor-ligand ΔTm (ER-β [22]): -0.3; change in Tm stabilization from the receptor-ligand ΔTm (ER-β [23]): 0.3 °C; ΔΔTm (SXR [24]): 3.4 °C; ΔΔTm (SXR [25]): 2.3 °C; change in Tm stabilization from the receptor-ligand ΔTm (ER-β [26]): 0.4 °C; change in Tm stabilization from the receptor-ligand ΔTm (ER-β [27]): 0.3; ΔΔTm (SXR [28]): 6.7 °C; change in Tm stabilization from the receptor-ligand ΔTm (ER-β [29]): -0.7
LTERHKILHRLLQEGSPSD (peptide, UniProt Q15788 683-701, looked up, Peptide fragment of SRC-1) [co-activator peptide SRC1-NR2]	-0.5	5.5	0.7	0.2	3.5	3.3	4.5	4.6	4.9	2.7	3.4	2.9	2.9	2.5	3	0.2	2.9	3.3	0.8	2.6	ΔΔTm (SXR [21]): 3; change in Tm stabilization from the receptor-ligand ΔTm (ER-β [22]): 3.8; change in Tm stabilization from the receptor-ligand ΔTm (ER-β [23]): 0.4; ΔΔTm (SXR [24]): 3.3; ΔΔTm (SXR [25]): 3.9; change in Tm stabilization from the receptor-ligand ΔTm (ER-β [26]): 0.2; change in Tm stabilization from the receptor-ligand ΔTm (ER-β [27]): 0.2; ΔΔTm (SXR [28]): 2.9; change in Tm stabilization from the receptor-ligand ΔTm (ER-β [29]): 4.4
